Data from patent publication US20250243263A1 (VOYAGER THERAPEUTICS, published 2025).
Where no end group is shown, it is not given here. [ ]: non-standard residue; d: D form. pT = C[C@@H](OP(=O)(O)O)[C@H](N)C(=O)O

T1: AT8 peptide (amino acids 195-215 of tau) (human, phospho-peptide, phosphorylated sites not stated in the example; immobilized on streptavidin tips)
T1 peptide: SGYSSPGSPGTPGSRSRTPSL

T2: AT270 peptide (pT181; Tau172-186) (human)
T2 peptide: PAKTPPAPK[pT]PPSSG

T3: Tau(pS404) peptide (human, phosphoserine at S404 of tau (peptide position 18))
T3 construct: also called TauS404 peptide; TauS404
T3 peptide: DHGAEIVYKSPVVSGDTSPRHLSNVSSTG

B1: VY003 (antibody, V domains shown)
VH: EVQMVESGGGLVQPGGSLTLSCAASGFTFSSYRMNWVRQAPGKGLEWVSYISSSRSAIYYADSVKGRFTISRDNAKNSLYLQMNSLRDEDTAVYYCATLGIGYWGQGTLVTVSS
VL: DIVMTQTPLSSPVTLGQPASISCRSSQSLVHSDGNTYLSWLQQRPGQPPRLLIYKISNRFSGVPDRFSGSGAGTDFTLKITRVEAEDVGIYYCMQVTQFPRTFGQGTKVEIR
B2: VY020 (antibody, V domains shown)
VH: EVQLVESGGGLVQPGGSLRLSCAASGFTFSSYSMNWVRQAPGKGLEWISYISSSNSTIKYADSVKGRFTISRDNAKNSLYLQMNSLRDEDTAVYYCARRSLGDYWGQGTLVIVSS
VL: EIVLTQSPATLSLSPGERATLSCRASQSVSSYLAWYLQKPGQAPRLLIYDVSNRATGIPARFSGSGSGTDFTLTISRLEPEDFAVYYCQQRRNWPYTFGQGTKLEIK
B3: VY014 (antibody, V domains shown)
VH: EVQLVESGGGLVQPGGSLRLSCAASGFTFNNYDMHWVRQAAGKGLEWVSTIGAAGDTYYPGSVKGRFIISRENAKNSLYLQMNSLRAGDTAVYYCARAGETLEGATIGYYYGMDVWGQGTTVTVSS
VL: DILMTQSPLSLPVTPGEPASISCRSSQSLLHSNGYNYLDWYLQKPGQSPQLLIYLGSNRASGVPDRFSGSGSGTDFTLKFSRVEAEDVGLYYCMQALQIPLTFGGGTKVEIK

Columns and labels:
[1] = target: Tau191-214 phospho-peptide (pS202) (human, phosphoserine at S202 of tau (peptide position 12); SCBio-4PEG label); assay: one point ELISA
Text: (§1) One-point ELISA was used to determine differential binding based on the individual phosphorylation patterns of each peptide. OD values (450 nm) were collected (as shown in Table 13), where a stronger positive signal is shown as a higher OD value, which is indicative of increased binding.

[2] = target: T4, pS199-old (SCBio-4PEG-Peptide, Tau191-214) (human, phosphoserine at S199 of tau by the row label; SCBio-4PEG label); assay: one point ELISA
T4 construct: The suffix -old is not explained
Text: as §1

[3] = target: Tau191-214 phospho-peptide (pT205) (human, phosphothreonine at T205 of tau (peptide position 15); SCBio-4PEG label); assay: one point ELISA
Text: as §1

[4] = target: Tau191-214 phospho-peptide (pS199/pT205) (human, phosphoserine at S199 and phosphothreonine at T205 of tau (peptide positions 9, 15); SCBio-4PEG label); assay: one point ELISA
Text: as §1

[5] = target: T5, Tau191-214 phospho-peptide (pS199) (human, phosphoserine at S199 of tau (peptide position 9); SCBio-4PEG label); assay: one point ELISA
T5 construct: also called pS199 peptide
Text: as §1

[6] = target: Tau191-214 phospho-peptide (pS199/pS202) (human, phosphoserine at S199 and S202 of tau (peptide positions 9, 12); SCBio-4PEG label); assay: one point ELISA
Text: as §1

[7] = target: T6, iPHF (UniProt P10636-8 2-441, limits assumed); assay: BLI (Octet), antibody on biosensor tip, iPHF in solution
T6 construct: also called iPHF tau
Protocol: Anti-human tau antibodies were assessed for affinity for iPHF by Octet (ForteBio, Menlo Park, CA) analysis. A set of recombinant human IgG1 antibodies were prepared with clone-specific variable domain pairs selected from those presented in Table 1 and human IgG1 constant domains. Candidate antibodies were immobilized on biosensor tips (ForteBio) in kinetic buffer (ForteBio). Biosensor tips were then washed before introduction of a solution of iPHF in kinetic buffer for analysis of association and dissociation with candidate antibodies.

[8] = target: enriched paired helical filament tau protein (ePHF; sarkosyl insoluble tau) (human, UniProt P10636 2-758); assay: direct ELISA, ePHF coated
Protocol: (§2) A set of recombinant human IgG1 antibodies were prepared with clone-specific variable domain pairs selected from those presented in Table 1 and human IgG1 constant domains. These candidate antibodies were analyzed for binding to ePHF and specificity for ePHF over wild type tau by direct ELISA.
(§3) For direct ePHF and wildtype tau ELISA, plates were first coated with ePHF or wild type tau. Antigen solutions were prepared in PBS and 50 μL were pipetted into each well. Plates were covered and incubated for one hour at 37° C. or overnight at 4° C. Plates were then washed and blocked by addition of 150 μl of blocking buffer to each well and incubated one hour at room temperature. Plates were then washed before addition of serially diluted candidate antibody samples prepared in blocking buffer. Detection of candidate antibody binding was carried out by washing plates and adding a solution of enzyme-labeled secondary antibody in blocking buffer to each well. Secondary antibody binding was detected by addition of substrate and spectrophotometric analysis of resulting reaction product.

[9] = target: T1, AT8 peptide (amino acids 195-215 of tau); assay: BLI (Octet), phospho-peptide on streptavidin tips
Protocol: Briefly, phospho-peptides were immobilized on streptavidin biosensor tips and the binding ability of each antibody was assessed using an eight-point concentration gradient.

[10] = target: T5, Tau191-214 phospho-peptide (pS199); assay: BLI
[11] = target: T2, AT270 peptide (pT181; Tau172-186); assay: one point ELISA
[12] = target: T3, Tau(pS404) peptide; assay: competitive ELISA on TauS404 peptide, competitor AC04 peptide
[13] = target: T7, wild type tau (human, UniProt P10636 2-758); assay: direct ELISA, wild type tau coated
T7 construct: also called WT
Protocol: as §2, §3

T6 sequence (P10636 other isoform, or with tags, fused parts or gaps limits assumed): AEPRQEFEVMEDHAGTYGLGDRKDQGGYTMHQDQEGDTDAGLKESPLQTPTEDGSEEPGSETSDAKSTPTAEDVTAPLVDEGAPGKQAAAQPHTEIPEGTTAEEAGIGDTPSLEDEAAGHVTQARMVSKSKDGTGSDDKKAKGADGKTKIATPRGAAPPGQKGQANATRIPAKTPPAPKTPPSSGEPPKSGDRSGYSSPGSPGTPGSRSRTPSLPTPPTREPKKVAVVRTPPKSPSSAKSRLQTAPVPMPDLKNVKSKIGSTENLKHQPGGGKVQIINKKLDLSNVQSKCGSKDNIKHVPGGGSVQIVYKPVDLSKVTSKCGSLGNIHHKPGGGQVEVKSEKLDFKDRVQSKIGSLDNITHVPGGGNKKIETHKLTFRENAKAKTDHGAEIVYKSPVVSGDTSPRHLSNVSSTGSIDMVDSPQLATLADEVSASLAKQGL
T5 sequence (peptide, as listed by the source): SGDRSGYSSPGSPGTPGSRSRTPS
enriched paired helical filament tau protein (ePHF; sarkosyl insoluble tau), sequence (P10636 other isoform, or with tags, fused parts or gaps limits assumed): as the sequence (P10636 other isoform, or with tags, fused parts or gaps limits assumed) above
T7 sequence (P10636 other isoform, or with tags, fused parts or gaps limits assumed): as above

Binder | OD (450 nm) [1] [OD450] | OD (450 nm) [2] [OD450] | OD (450 nm) [3] [OD450] | OD (450 nm) [4] [OD450] | OD (450 nm) [5] [OD450] | OD (450 nm) [6] [OD450] | Kd [7] [nM] | EC50 [8] [nM] | Kd [9] [nM] | binding result [10] | binding result [9] | binding result [11] | binding result [12] | EC50 [13] [nM]
B1 | 0.065 | 0.062 | 0.06 | 0.119 | 0.065 | 0.082 | 4.6 | 0.06 | 0.0124 | – | – | – | – | –
B2 | – | – | – | – | – | – | 2.6 | – | – | no binding | no binding | no binding | – | –
B3 | – | – | – | – | – | – | 5.3 | 6.23 | – | – | – | – | binds | 0.04
